The nanobody polyreactivity screen of Harvey et al. (2022)

Experiment: yeast display, Sf9 membrane polyspecificity reagent, FACS + sequencing; frameworks hold sequencing errors
Outline: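 Polyreactivity labels are assigned by the sorting gate from which each nanobody was recovered. The gates were low and high (top ~1%), set on anti-HA fluorescence for expression and streptavidin fluorescence for reagent binding. Before sorting, galactose-induced (36–48 hours) yeast display cells were stained for 1 hour at 4 °C with 10% biotinylated, detergent-solubilized Sf9 membrane reagent.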

QVQLVESGGGLVQAGGSLRLSCAASGSIFFIYAMGWYRQAPGTERELVATITSGGSTYYADSVKGRFTISRDNAKNTVYLQMNSLKPEDTAVYYCAVDEYYAFDYWGQGTQVTVSS
polyreactivity (PSR sort gate): low polyreactivity

QVQLVESGGGLVQAGGSLRISCAASGSTFDVNAMGWYRQAPGKERELVAAISWNSGSTYYADSVKGRFTISRDNAKNTVYLQMNSLKPEDTAVYYCAATYGTGRRSKYGYWGQGTQVTVSS
polyreactivity (PSR sort gate): high polyreactivity

QVQLVESGGGLVQAGGSLRLSCAASGRIFEYNAMGWYRQAPGKERELVAAITSDGSTNYADSVKGRFTISRDNEKNTVYLQMNSLKPEDTAVYYCNTRYSLYTKYAYYDEHDYWGQGTQVTVSS
polyreactivity (PSR sort gate): low polyreactivity

QVQLVESGGGLVQAGGSLRLSCAASGRTFVVYAMGWYRQAPGKERELVAAISGRGGRTYYADSVKGRFTISRDNAKNTVYLQMNSLKPEETAVYYCATRSSVPKRFTRYGYWGHGTQVTVSS
polyreactivity (PSR sort gate): high polyreactivity

QVQLVESGGGLVQAGGSLRLSCAASGFTFSNYAMGWYRQAPGKERELVAAITGSGGSTFYADSVKGRFTISRDNAKNTVYLQMNSLKPEDTAVYYCAAYYWSSKYDYWGQGTQVTVSS
polyreactivity (PSR sort gate): high polyreactivity

QVQLVESGGRLVQAGASLRLSCAASGFTFGGYAMGWYRQPHGKQRELVAAIDSSGGRTYNADSVKGRFTISRDNAKNTVYLQMNSLKPEDTAVYYCNAVYGSDGYDYWGQGTQVTVSS
polyreactivity (PSR sort gate): high polyreactivity

QVQLVESGGGLVQAGGSLRLSCAASGSTFAFNAMGWYRQAPGKEREFVARITWTYGSTYYADSVKGRFTISRDNAKNTVYLQMNSLKPEDTAVYYCARDPTEQAIARWTYDYWGQGTQVTVSS
polyreactivity (PSR sort gate): low polyreactivity

QVQLVESGGGLVQAGGSLRLSCAASGSIFPGYAMGWSRQAPGKERELVATISTGGSTYYADSVKGRFTISRDNAKNTVYLQMNSLKPEDTAVYYCNADIRSYLRYSLRRYDDYDYWGQGTQVTVSS
polyreactivity (PSR sort gate): low polyreactivity

QVQLVESGGGLVQAGGSLRLSCAASGLTFYYYAMGWYRQAPGKEREFVAAISYRGGRTYYADSVKGRFTISRDNAKNTVYLQMNSLKPEDTAVYYCAKLGKSRWWGVGPLEMDSWGQGTQVTVSS
polyreactivity (PSR sort gate): high polyreactivity

QVQLVESGGGLVQAGGSLRLSCAASGITYCANTMGWYRQAPGKERELVADITVTGDGTYYADSVKGRFTISRDNAKNTVYLQMNSLKPEDTAVYYCAADFWLVSFQWDFEYDYWGQGTQVTVSS
polyreactivity (PSR sort gate): low polyreactivity

QVQLVESGGGLVQAGGSLRLICAASGLTFGSNGMGWYRQAPGKERELVAAISRGGSTSYADSVKGRFTISRDNAKNTVYLQMNSLKPEDTAVYYCNASPWGPSYFRTPYYGVRRYNYWGQGTQVTVSS
polyreactivity (PSR sort gate): high polyreactivity

QVQLVESGGALVQAGGSLRLSCAASGSTFAYYAMGWSRPAPGKERELVAAITRGGRTNYADSVKGRFTISRDNAKNTVYVQMNSLNREDTAVYYCAARSGRSWLTCSYDYWGQGTQVTVSS
polyreactivity (PSR sort gate): high polyreactivity

QVQLVESGGGLVQAGGSLRLSCAASGFIFTDNAMGWYRQAPGKESEFVAAITYSGGSTYYADSVKGRFTISRDNAKNTVYLQMNSLKPEDTAVYYCNKDFFPAPVVVTAYEYEYWGQGSQVTVSS
polyreactivity (PSR sort gate): low polyreactivity

QVQLVESGGGLVQAGGSLRLSCAASGRIFRYYTMGWYRQEPGKERELVAAITGSGGSTYYADSVKGRFTISRDNAKTTVYLQMNSLKPEDTAVYYCAARGYLDMGYWGQGTQVTVSS
polyreactivity (PSR sort gate): high polyreactivity

EEELVESGVGLVQAGGSLRLSCAASGRTFARNAMGWYRQAPGKERELVAGINFSGGNTYYADSVKGRFTISRDNAKNTVYLQMNSLKPEDTAVYYCAARRYWEGDYWGQGTQVTVSS
polyreactivity (PSR sort gate): low polyreactivity

QVQLVESGGGLVQAGGSLRLSCAASVRTFSAYAMGCSRQAPGKERELVARITSVDSTNYSDSVNGRFTFSRDNAKNNVYLQMNSLKPEDTAVYSCNATFGYPFVDYDDYWGQGTQVTVSS
polyreactivity (PSR sort gate): low polyreactivity

QVQLVESGGGLVQAGGSLRLSCAASGSFLVYYAMGWYRQAPGKERELVAAISWRGDSTSYADSVKGRFTISRDNAKNTVYLQMNSLKPEETAVYYCATAHDYAFYRYWYVPSEYNYWGQGTQVTVSS
polyreactivity (PSR sort gate): low polyreactivity

QVQLVESGGGLVQAGGSLRLSCAASGSTFGIYAMGWYRQAPGKERELVATISWGGGDTYYADSVKGRFTISRDNAKNTVYLQMNSLKPEDTAVYYCAADLWYGKTSGSTTPDPYDYWGQGTQVTVSS
polyreactivity (PSR sort gate): low polyreactivity

QVQLVESGGGLVQAGGSLRLSCAASGRTLYRNAMGWYRQAPGKERELVAAIKMRGGSTYADSVKGRFTISRDNAKNTVYLQMNSLKPEDTAVYYCAAASRSPYYYWGQGTQVTVSS
polyreactivity (PSR sort gate): high polyreactivity

QVQLVESGGGLVQAGGSLRLSCAASGSTFRGYAMGWYRQVPGKERELVADISWSGTSTYYADSVKGRFTISRDNAKNTFYLQLNSVIPEDTAVYYCAKGGRDRSRKYYYWGQGTQVTVSS
polyreactivity (PSR sort gate): high polyreactivity

QVQLVESGGGLVQAGGSLRLSCAASGSIFVGYAMGWYRQAPGKERELVAAISASGSSTYYADSVKGRFTISRDNAKNTVYLQMNSLKPEDTAVYYCATKRVASSWTYVYWGQGSQVTVSS
polyreactivity (PSR sort gate): high polyreactivity

QVQLVESGGGLVQAGGSLRLSCAASGRTFAYYAMGWYRQAPGKERELVAAITTSGTRTYYADSVKGRFTISRDTAKNTVYLQMNSLKPEDTAVYSCAARYRYQYEFDYWGQGTQVTVSS
polyreactivity (PSR sort gate): high polyreactivity

QVQLVESGGGLVQAGGSLRLSCAASGFTFYTYAMGWYRHAPGKERELVAAITSSGGSTYYADSVKGRFTISRDNAKNSVYLQMNSLKPEDTAVYYCKAVSYYLGDDYWGQGTQVNVSS
polyreactivity (PSR sort gate): high polyreactivity

QVQLVESGGGLVQAGGSLRLICAASGIIFVSNAMGWYRQAPGKERELVATINWSDDSTYYADSVKGRFTISRDNAKYTVYLQMNSLKPEDTAVYYCNARPLRYVESDYWGQGTQVTVSS
polyreactivity (PSR sort gate): low polyreactivity

QVQLVESGGGLVQAGGSLRLSCAASGSTFYFIAMGWFRQAPGKEWELVAVIDGSGGFTYYADSVKGRFTISRDNAKNTVYLQMNSLKPEDTAVYYCAADKTQSHYDDWGQGTQVTVTS
polyreactivity (PSR sort gate): high polyreactivity

QVQLVESGGGLVQAGGSLRLSCAASGFTFWTYAMGWYRQAPGKERELVAAISRSAGRTYYADSVKGRFTISRDNAKNTVYLQMNSLKPEDTAVYYCNARAGYVRYGYWGQGTQVTVSS
polyreactivity (PSR sort gate): high polyreactivity

QVQLVESGGGLVQAGGSLRLSCAASGLTFAQNAMGWYRQAPGKERELVAAITRSGGRTYYADSVKGRFTISRDNSKNTVYFQMNSLKPEDTAVYYCAARVLQYSGYYYWGQGTQVTVSS
polyreactivity (PSR sort gate): high polyreactivity

QVQLQESGGGLEQAGGSLRLSCAASGTNTVLYKMGWFRQAPGKEREFVASINFGTSTYYADSVKGRFTDSRDSAINTVFLHMNSLKPEDTSVYYCAAAYRWQDFYRYWGQGTQVTVSS
polyreactivity (PSR sort gate): low polyreactivity

QVQLVESGGGLVQAGGSLRLSCAASGRIFRPNAMGWYRQAPGKEREFVAAITSSSGTTYYADSVKGRFTISRDNAKNTVYLQMNSLKPEDTAVYYCAAAQRSVRLKFGYWGQGTQVTVSS
polyreactivity (PSR sort gate): high polyreactivity

QVQLVESGGGLVQAGGSLRLSCAASGRTFASNDMGWYRHAPGNERELVAGITGSGGSTYYADSVKGRFTISRDNAKNTVYLQMNSLKPEDTAVYYCAADRSRGYGYDYWGQGTQVTVSS
polyreactivity (PSR sort gate): low polyreactivity

QVQLVESGGGLVQAGGSLRLICAASGFTFLVNAMGWYRQAPGKERELVAAISSGGSTYYADSVKGRFTISRDNAKNTVYLQMNSLKPEDTAVYYCAAPTDFLFWEFDYWGQGTQVTVSS
polyreactivity (PSR sort gate): low polyreactivity

QVQLVESGGGIVQAGGSLRVSFAASGLIFYRYAMGWYRQAPGKERELVAAISSAGSTYYADSVKGRFPISRDNAKNTVYLQMNSLKPEDTAVYYCAKKKLLSVPPRGYVYVYYWGQGTQVTVSS
polyreactivity (PSR sort gate): high polyreactivity
